For this series the following is noted: Escherichia coli (strain K12), reversible: yes, whole UniProt chain shown; for unfolding free energy: pH 7, 25 °C, GdnHCl, CD, Potassium phosphate 10 mM.
[1] abbreviates: pH 9, Thermal, DSC, Sodium tetraborate 1 mM.

Here are results for one protein from FireProtDB (doi:10.1002/prot.340090203).

B1: Tryptophan synthase alpha chain wild type, P0A877 (protein)
chain: MERYESLFAQLKERKEGAFVPFVTLGDPGIEQSLKIIDTLIEAGADALELGIPFSDPLADGPTIQNATLRAFAAGVTPAQCFEMLALIRQKHPTIPIGLLMYANLVFNKGIDEFYAQCEKVGVDSVLVADVPVEESAPFRQAALRHNVAPIFICPPNADDDLLRQIASYGRGYTYLLSRAGVTGAENRAALPLNHLVAKLKEYNAAPPLQGFGISAPDQVKAAIDAGAAGAISGSAIVKIIEQHINEPEKMLAALKVFVQPMKAATRS
Regarding B1, the unfolding free energy is 8.8 kcal/mol. In addition, the unfolding free energy (transition: 3) was found to be 4.6 kcal/mol. Under setting [1], the Tm (as a rule, the temperature at the midpoint of the melting transition) amounted to 54.1 °C; the “heat capacity change of unfolding” value was 4.6 kcal/mol/K; the “unfolding enthalpy (calorimetric)” value came to 120 kcal/mol.
